Four molecules from patent US12104178B2, “DHFR tunable protein regulation” (Obsidian Therapeutics, Inc., priority 2017, dated 2024) can be followed below.

Positions count from the first letter of the chain named. In names and notes the source's numbering stands.

To fix the notation:
B1: OT-DHFRC-029: combination mutant hDHFR (I17V, Y122I) (protein, UniProt P00374 1-187, looked up, variant I17V Y122I)
Dihydrofolate reductase: MVGSLNCIVAVSQNMGVGKNGDLPWPPLRNEFRYFQRMTTTSSVEGKQNLVIMGKKTWFSIPEKNRPLKGRINLVLSRELKEPPQGAHFLSRSLDDALKLTEQPELANKVDMVWIVGGSSVIKEAMNHPGHLKLFVTRIMQDFESDTFFPEIDLEKYKLLPEYPGVLSDVQEEKGIKYKFEVYEKND
B2: OT-hDHFRC-030: combination mutant hDHFR (Y122I, M140I) (protein, UniProt P00374 1-187, looked up, variant Y122I M140I)
Dihydrofolate reductase: B1 Dihydrofolate reductase with V17I, M140I
B3: OT-hDHFRC-031: combination mutant hDHFR (N127Y, Y122I) (protein, UniProt P00374 1-187, looked up, variant N127Y Y122I)
Dihydrofolate reductase: B1 Dihydrofolate reductase with V17I, N127Y
B4: OT-hDHFRC-032: combination mutant hDHFR (Y122I, H131R, E144G) (protein, UniProt P00374 1-187, looked up, variant Y122I H131R E144G)
Dihydrofolate reductase: B1 Dihydrofolate reductase with V17I, H131R, E144G

For the first assay, the system named is HCT116 cells. Kind of assay: Combination mutation analysis, TMP dose response MFI. The assay is classed as cell-based, human. The conditions noted are these: DMSO, 48 h. From the text:
Mutations identified by random mutagenesis were combined with mutations identified by site directed mutagenesis.
Regarding B1, the MFI amounted to 3041.
The same measure, in the same setting: then B2, with 2539; and B3, with 2565.
In the case of B4, the MFI worked out at 2627.

The same assay, now with this note: TMP dose (log) −4.
With B1, the Stabilization ratio is 52.17.
Take B2: the Stabilization ratio was 26.28.
Same read-out and setting: then B3, with 56.59; and B4, with 18.99.

The same assay, now with this note: TMP dose (log) −4, 48 h.
Consider B1, for which the MFI stood at 158659.
As for B2, the MFI was found to be 66732.
In the case of B3, the MFI worked out at 145144.
Regarding B4, the MFI was 49891.

The same assay, now with this note: TMP dose (log) −4.48.
Turning to B1, the Stabilization ratio was found to be 37.93.
Still for that read-out and setting: then B2, with 8.23; and B3, with 38.52; and B4, with 4.66.

Staying with this assay, now noted: TMP dose (log) −4.48, 48 h.
As for B1, the MFI turned out to be 115339.
On the same count and under the same terms, under B2 stands 20890.
Consider B3, for which the MFI came out at 98805.
B4: the MFI was 12247.

The same assay, now with this note: TMP dose (log) −4.95.
With B1, the Stabilization ratio is on record as 21.76.
On the same count and under the same terms, under B2 stands 2.62.
Same read-out and setting: then B3, with 20.77; and B4, with 1.94.

Still in this assay, the particulars now being: TMP dose (log) −4.95, 48 h.
Turning to B1, the MFI is 66170.
The same measure, in the same setting: under B2 stands 6641.
Still for that read-out and setting: then B3, with 53282; and B4, with 5092.

The assay is the same for the next values; noted with them: TMP dose (log) −5.43.
Take B1: the Stabilization ratio stood at 7.71.
B2: the Stabilization ratio worked out at 1.38.
On to B3, for which the Stabilization ratio is reported as 6.14.
B4: the Stabilization ratio is given as 1.24.

Staying with this assay, now noted: TMP dose (log) −5.43, 48 h.
On to B1, for which the MFI was found to be 23454.
As for B2, the MFI is 3494.
Same read-out and setting: then B3, with 15743; and B4, with 3246.

The assay is the same for the next values; noted with them: TMP dose (log) −5.91.
With B1, the Stabilization ratio turned out to be 2.29.
Still for that read-out and setting: under B2 stands 1.09; under B3, 2.17.
On the same count and under the same terms, then B4, with 1.08.

Staying with this assay, now noted: TMP dose (log) −5.91, 48 h.
With B1, the MFI turned out to be 6966.
Same read-out and setting: then B2, with 2766; and B3, with 5576; and B4, with 2826.

Staying with this assay, now noted: TMP dose (log) −6.39.
In the case of B1, the Stabilization ratio was 1.43.
Take B2: the Stabilization ratio worked out at 1.03.
As to B3, the Stabilization ratio stood at 1.30.
Same read-out and setting: then B4, with 1.03.

The assay is the same for the next values; noted with them: TMP dose (log) −6.39, 48 h.
As for B1, the MFI was found to be 4355.
As to B2, the MFI was 2618.
On the same count and under the same terms, under B3 stands 3345.
B4: the MFI was found to be 2694.

Staying with this assay, now noted: TMP dose (log) −6.86.
As to B1, the Stabilization ratio is listed as 1.13.
The same measure, in the same setting: under B2 stands 1.04; under B3, 1.14; under B4, 1.03.

Still in this assay, the particulars now being: TMP dose (log) −6.86, 48 h.
Turning to B1, the MFI worked out at 3439.
Regarding B2, the MFI worked out at 2643.
The same measure, in the same setting: then B3, with 2922.
B4: the MFI came out at 2704.
